Four molecules from publication PMC12828022 (Nature Communications, 2025) can be followed below.

Assay [1] concerns the target T1, ACT1 residues 372-574 (wild type) (human, UniProt O43734-1 372-574).
T1 sequence: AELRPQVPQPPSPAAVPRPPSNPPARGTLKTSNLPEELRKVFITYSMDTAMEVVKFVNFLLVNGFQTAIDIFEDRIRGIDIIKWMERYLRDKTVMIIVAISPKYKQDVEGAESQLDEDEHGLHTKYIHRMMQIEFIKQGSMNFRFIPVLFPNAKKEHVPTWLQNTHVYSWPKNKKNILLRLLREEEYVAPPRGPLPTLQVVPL
The experiment in a line: negative-stain EM.

For assay [2], the target named is T2, IL-17RA residues 361-866 (SEFIR domain and SEFEX, as part of the IL-17RB-RA fusion) (human, UniProt Q96F46-1 361-866).
T2 sequence: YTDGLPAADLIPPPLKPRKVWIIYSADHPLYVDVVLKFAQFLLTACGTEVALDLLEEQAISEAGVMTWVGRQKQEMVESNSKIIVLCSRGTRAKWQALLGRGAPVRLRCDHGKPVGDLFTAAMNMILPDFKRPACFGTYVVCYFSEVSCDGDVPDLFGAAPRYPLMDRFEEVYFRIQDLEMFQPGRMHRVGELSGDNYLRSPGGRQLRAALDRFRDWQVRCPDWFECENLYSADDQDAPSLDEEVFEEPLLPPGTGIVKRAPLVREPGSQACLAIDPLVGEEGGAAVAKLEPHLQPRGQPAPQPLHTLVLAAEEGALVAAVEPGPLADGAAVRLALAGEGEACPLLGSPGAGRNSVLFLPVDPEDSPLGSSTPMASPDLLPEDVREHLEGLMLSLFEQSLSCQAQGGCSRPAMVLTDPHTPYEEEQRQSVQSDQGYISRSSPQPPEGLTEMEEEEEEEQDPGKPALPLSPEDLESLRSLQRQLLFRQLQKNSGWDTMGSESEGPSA
The assay can be described thus: cryo-EM structure.

In assay [3] the target is T1, ACT1 residues 372-574 (wild type). The experiment in a line: SEC. Background: Size exclusion chromatography separates by hydrodynamic size, large species first.

B1: IL-17RC-RA fusion (IL-17RC residues 510-705, 3x(GGGS) linker, IL-17RA residues 361-866) (other)
chain: ARGRAALLLYSADDSGFERLVGALASALCQLPLRVAVDLWSRRELSAQGPVAWFHAQRRQTLQEGGVVVLLFSPGAVALCSEWLQDGVSGPGAHGPHDAFRASLSCVLPDFLQGRAPGSYVGACFDRLLHPDAVPALFRTVPVFTLPSQLPDFLGALQQPRAPRSGRLQERAEQVSRALQPALDSYFHPPGTPAPGGGGSGGGSGGGSYTDGLPAADLIPPPLKPRKVWIIYSADHPLYVDVVLKFAQFLLTACGTEVALDLLEEQAISEAGVMTWVGRQKQEMVESNSKIIVLCSRGTRAKWQALLGRGAPVRLRCDHGKPVGDLFTAAMNMILPDFKRPACFGTYVVCYFSEVSCDGDVPDLFGAAPRYPLMDRFEEVYFRIQDLEMFQPGRMHRVGELSGDNYLRSPGGRQLRAALDRFRDWQVRCPDWFECENLYSADDQDAPSLDEEVFEEPLLPPGTGIVKRAPLVREPGSQACLAIDPLVGEEGGAAVAKLEPHLQPRGQPAPQPLHTLVLAAEEGALVAAVEPGPLADGAAVRLALAGEGEACPLLGSPGAGRNSVLFLPVDPEDSPLGSSTPMASPDLLPEDVREHLEGLMLSLFEQSLSCQAQGGCSRPAMVLTDPHTPYEEEQRQSVQSDQGYISRSSPQPPEGLTEMEEEEEEEQDPGKPALPLSPEDLESLRSLQRQLLFRQLQKNSGWDTMGSESEGPSA
As for B1, in assay [1], the binding result is “binds”.

B2: ACT1 residues 372-574 Y558F (domain or fragment)
chain: AELRPQVPQPPSPAAVPRPPSNPPARGTLKTSNLPEELRKVFITYSMDTAMEVVKFVNFLLVNGFQTAIDIFEDRIRGIDIIKWMERYLRDKTVMIIVAISPKYKQDVEGAESQLDEDEHGLHTKYIHRMMQIEFIKQGSMNFRFIPVLFPNAKKEHVPTWLQNTHVYSWPKNKKNILLRLLREEEFVAPPRGPLPTLQVVPL
Take B2: in assay [2], the binding result was “binds”.

B3: IL-17RB residues 328-484 (SEFIR domain, as part of the IL-17RB-RA fusion) (domain or fragment)
chain: LLPPIKVLVVYPSEICFHHTICYFTEFLQNHCRSEVILEKWQKKKIAEMGPVQWLATQKKAADKVVFLLSNDVNSVCDGTCGKSEGSPSENSQDLFPLAFNLFCSDLRSQIHLHKYVVVYFREIDTKDDYNALSVCPKYHLMKDATAFCAELLHVKQ
For B3, the binding result in assay [2] is listed as “binds”.

B4: IL-17RB-RA fusion (IL-17RB residues 328-484, 16-residue linker, IL-17RA residues 361-866) (other)
chain: LLPPIKVLVVYPSEICFHHTICYFTEFLQNHCRSEVILEKWQKKKIAEMGPVQWLATQKKAADKVVFLLSNDVNSVCDGTCGKSEGSPSENSQDLFPLAFNLFCSDLRSQIHLHKYVVVYFREIDTKDDYNALSVCPKYHLMKDATAFCAELLHVKQGGGSGGGSGGGSGGGSYTDGLPAADLIPPPLKPRKVWIIYSADHPLYVDVVLKFAQFLLTACGTEVALDLLEEQAISEAGVMTWVGRQKQEMVESNSKIIVLCSRGTRAKWQALLGRGAPVRLRCDHGKPVGDLFTAAMNMILPDFKRPACFGTYVVCYFSEVSCDGDVPDLFGAAPRYPLMDRFEEVYFRIQDLEMFQPGRMHRVGELSGDNYLRSPGGRQLRAALDRFRDWQVRCPDWFECENLYSADDQDAPSLDEEVFEEPLLPPGTGIVKRAPLVREPGSQACLAIDPLVGEEGGAAVAKLEPHLQPRGQPAPQPLHTLVLAAEEGALVAAVEPGPLADGAAVRLALAGEGEACPLLGSPGAGRNSVLFLPVDPEDSPLGSSTPMASPDLLPEDVREHLEGLMLSLFEQSLSCQAQGGCSRPAMVLTDPHTPYEEEQRQSVQSDQGYISRSSPQPPEGLTEMEEEEEEEQDPGKPALPLSPEDLESLRSLQRQLLFRQLQKNSGWDTMGSESEGPSA
For the molecule B4, in assay [3], the binding result is on record as “binds”.
